In series [1] the test system is bevacizumab (Avastin) (humanized IgG (organism not stated)). Kind of series: bead pull-down, HT-RPLC of residual solution. The conditions noted are these: 50 ug/mL bevacizumab, Plasma samples diluted 10x in 175 mM trehalose, 42 mM NaH2PO4, 8 mM Na2HPO4, 0.4% Tween-20, pH 7.4, 0.1% peptone, room temperature, 1 h, bead comparison: beads …; for fraction of antibody not captured (% not captured): immobilization effect, 5'-aminohexyl.

For series [2] the test system is unchanged. Kind of series: bead pull-down, HT-RPLC of eluate. The conditions noted are these: 10 ug/mL in human plasma, 5'-biotin, Plasma samples diluted 10x in 175 mM trehalose, 42 mM NaH2PO4, 8 mM Na2HPO4, 0.4% Tween-20, pH 7.4, 0.1% peptone, room temperature, 1 h, bead comparison: beads ….

As to “GCGGTTGGTGGTAGTTACGTTCGC [anti-bevacizumab DNA aptamer, 5'-aminohexyl]”, the fraction of antibody not captured (% not captured) in series [1] (carboxylic acid beads) was 85.5; in series [1] (tosylactivated beads), 75.8.
Take “GCGGTTGGTGGTAGTTACGTTCGC [anti-bevacizumab DNA aptamer, 5'-biotin]”: the binding signal is greater than 99.8 % captured in series [1] (streptavidin beads, 5'-biotin); 101 % recovery in series [2] (first use of beads); 97.3 % recovery in series [2] (third use of beads).

(Values after publication PMC6429324.)
